Assay results as given in paper PMC5777972 (Protein & Cell, 2017).

Experiments:
[1] = target: T1, PD-L1 extracellular domain fragment (from F19 to R238) (Homo sapiens, UniProt Q9NZQ7); experiment: SPR; BIAcore T100, CM5 chip, about 1000 RU of PD-L1 immobilised, scFv flowed at 5 nM to 80 nM, 25 °C, HBS-EP (150 mM NaCl, 10 mM HEPES, pH 7.4, 0.005% Tween-20), 1:1 Langmuir model; settings: both partners purified
T1 construct: PD-L1 extracellular domain fragment, F19 to R238; probably the start methionine of the E. coli construct (surmise); also called two-Ig-domain PD-L1

two-Ig-domain PD-L1 = target: T2, two-Ig-domain PD-L1 (Homo sapiens, UniProt Q9NZQ7); experiment: SPR; PD-L1 protein immobilised on the chip, scFvs of the anti-PD-L1 MAbs flowed through; BIAcore T100; settings: both partners purified
T2 construct: PD-L1, the two Ig domains (IgV and the second Ig domain)
T2 sequence (Q9NZQ7 19-238): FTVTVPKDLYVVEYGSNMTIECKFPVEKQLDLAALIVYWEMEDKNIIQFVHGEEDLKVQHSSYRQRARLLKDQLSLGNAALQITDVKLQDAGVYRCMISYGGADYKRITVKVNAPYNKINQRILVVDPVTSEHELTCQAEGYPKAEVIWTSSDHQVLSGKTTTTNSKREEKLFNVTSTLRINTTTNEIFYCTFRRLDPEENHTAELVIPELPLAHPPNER

T1 sequence (Q9NZQ7 19-238): as above

Binder	koff [1]	kon [1]	Kd (two-Ig-domain PD-L1)
avelumab-scFv (scFv, V domains shown, VL of avelumab; avelumab-scFv 'obtained as durvalumab-scFv'; VH of avelumab; Order VL-linker-VH is stated for durvalumab-scFv only; also called avalumab-scFv) VH: EVQLLESGGGLVQPGGSLRLSCAASGFTFSSYIMMWVRQAPGKGLEWVSSIYPSGGITFYADTVKGRFTISRDNSKNTLYLQMNSLRAEDTAVYYCARIKLGTVTTVDYWGQGTLVTVSS VL: QSALTQPASVSGSPGQSITISCTGTSSDVGGYNYVSWYQQHPGKAPKLMIYDVSNRPSGVSNRFSGSKSGNTASLTISGLQAEDEADYYCSSYTSSSTRVFGTGTKVTVL	7.53e-05 s⁻¹	1.61e+06 M⁻¹ s⁻¹	
scFv of avelumab (scFv, V domains shown, VH and VL of avelumab as in the cited complex with PD-L1, PDB 5GRJ; The parent antibody is IgG1; the scFv was used for SPR; Its preparation may be told in the supplementary information) VH: EVQLLESGGGLVQPGGSLRLSCAASGFTFSSYIMMWVRQAPGKGLEWVSSIYPSGGITFYADTVKGRFTISRDNSKNTLYLQMNSLRAEDTAVYYCARIKLGTVTTVDYWGQGTLVTVSS VL: QSALTQPASVSGSPGQSITISCTGTSSDVGGYNYVSWYQQHPGKAPKLMIYDVSNRPSGVSNRFSGSKSGNTASLTISGLQAEDEADYYCSSYTSSSTRVFGTGTKVTVL			0.0467 nM
